Data reported in the supplement of paper PMC10567573.
± gives the standard deviation.

Assay: protein stability index of a GFP-peptide fusion (GPS, HEK-293T) (PSI 1-6); higher = more stable
Settings: c terminus: a fixed tail appended
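Note: 24-mer peptide tiles fused after GFP, lentivirally expressed, FACS-sorted into six equal bins by GFP/DsRed ratio, decoded by Illumina sequencing, PSI is the read-weighted mean bin number.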

Sequence	protein stability index (treatment: DMSO)	protein stability index (treatment: MLN4924 1 uM, 8 h)
QEYAAKIINTKKLSARDHQKLERE [CAMK2A]	4.71 ± 0.22	4.78 ± 0.19
KGGAVAADGRIEPGDMLLQVNEIN [DVL3]	4.49 ± 0.19	4.59 ± 0.14
PGDFDRNVPRICGVCGDRATGFHF [VDR]	2.19 ± 0.13	2.64 ± 0.27
SPSPMDPHMAEQTFEQAIQAASRI [CDC25B]	4.68 ± 0.16	4.56 ± 0.25
SVGFQSNEAASLASTGVGVVKVIS [SLC2A12]	3.68 ± 0.64	3.6 ± 0.41
NGHTDVADVLLQAGADLEHESEGG [ANKRD17]	5.37 ± 0.17	5.28 ± 0.048
NLIYRDVKPENFLIGRPGNKTQQV [CSNK1G3]	3.27 ± 0.1	3.25 ± 0.22
GYKSNQVRGLYDFYLPREELWIYN [KLHDC2]	2.44 ± 0.16	1.98 ± 0.17
QGLLGRSPPTRPVPGHRSERAIRT [SPRY1]	4.51 ± 0.21	4.47 ± 0.2
SISASSARFVSSGSGGGYGGGMRV [KRT15]	3.02 ± 0.22	3.55 ± 0.23
DSSLHWSSSYSPETFRQQFRQFGY [ZNF396]	2.66 ± 0.31	2.56 ± 0.15
LISGVTLDNCVEVGRIANTYNLTE [KLHL13]	2.89 ± 0.18	2.77 ± 0.15
FPTVVWTWWIMFLSTFSVPYFLFQ [SOAT1]	3.1 ± 0.56	2.99 ± 0.45
NVIETCKEAGVQKLILTSSASVIF [NSDHL]	2.69 ± 0.27	2.86 ± 0.71
QPPNAEEESGSSSASEEEDTKPKP [INTS3]	5.72 ± 0.23	5.65 ± 0.21
DERAMELLIDFAYTSQITVEEGNV [KLHL20]	2.54 ± 0.21	3.04 ± 0.2
RALHWAAYMGHLDVVALLINHGAE [ANKRD44]	2.56 ± 0.43	3.12 ± 0.66
PGPPAAPRARRRLGSGPDRELRKP [PWWP2B]	5.03 ± 0.56	5.12 ± 0.35
QPKEKIQAIIESCSRQFPEFQERA [NOL4L]	3.7 ± 0.36	3.85 ± 0.1
ALGPLRTPAPPLWIGLFLVATGSQ	2.64 ± 0.57	2.27 ± 0.14
ASDYSKKSNVLKLKTADWRVFLFQ [PSD2]	2.12 ± 0.42	2.23 ± 0.19
WTRITCAEEGWSPTPKCLRLCFFP [CFHR2]	2.82 ± 0.71	2.6 ± 0.46

Sequence	protein stability index (treatment: DMSO)	protein stability index (treatment: MLN4924 1 uM, 8 h)
PCELPCKEYDVARNTGAYTSSGLA [TEKT4]	4.18 ± 0.19	4.23 ± 0.13
QLRSDVCTPGGTTIYGLHALEQGG [PYCR3]	3.69 ± 0.23	3.61 ± 0.51
EREEITTKKRKLGKNPDVDTSFLP [FAM50A]	4.63 ± 0.35	4.79 ± 0.24
ALQEKLWNVAAPLYLKQSDLASAA [INTS4]	2.31 ± 0.17	2.27 ± 0.3
VSTGSTDNSPTSNSLEGGTDATAF [ADAMTSL2]	4.97 ± 0.28	5.31 ± 0.28
NTQTPVQPPPPPPPPPMQPTVPSA [CCDC6]	5.05 ± 0.48	5 ± 0.1
AELVLLTLGQAWQGYVSDIRRFLS [DFFB]	2.12 ± 0.17	2.06 ± 0.21
GGIETGSITEMFGEFRTGKTQICH [RAD51]	3.63 ± 0.34	3.71 ± 0.51
FKISGMNGIHVCMVFEVLGHHLLK [SRPK2]	3.01 ± 0.34	2.92 ± 0.31
QYTVPGTEGVTQLKLTVVEDVTVG [ZFYVE21]	3.86 ± 0.19	3.98 ± 0.41
QRAEMLPKTSGTRATSLGRPEEEE [CPOX]	5.47 ± 0.37	5.49 ± 0.28
FLRSIDQFANLVLHQTVERIHVGK [LSM1]	2.95 ± 0.55	2.46 ± 0.39
VQARMLSSTTILVQWKEPEEPNGQ [PTPRD]	3.27 ± 0.34	3.19 ± 0.35
QLLEDAILIIQGVLSDINLKKGES [NET1]	3.37 ± 0.24	3.77 ± 0.19
SNMCINNTLVCNGLQNCVYPWDEN [NETO1]	3.29 ± 0.082	3.36 ± 0.44
AEETANLPPSPPPSPASEQTVTVE [MAP2]	5.05 ± 0.18	5.18 ± 0.17
EIDSVPKTQSELASESEHIPKPQS [MIA2]	5.42 ± 0.26	5.49 ± 0.2
HARTHPQTALLESSCENKRADLVF [MATN2]	4.09 ± 0.46	4.02 ± 0.19
QLEVTCTPYLKETLNSIWNVEDHI [POMT2]	2.51 ± 0.32	2.44 ± 0.34
KVPVITSSKEEQKLIATSNKPAVK [KCTD10]	4.92 ± 0.27	5.29 ± 0.23
LGRSLTAVFMWPGKDSRWLPSLVL [SLC29A1]	2.98 ± 0.22	2.83 ± 0.47
SFAELFSFMLQDRAKGLLGTTVTF [FEM1C]	2.79 ± 0.56	3.21 ± 0.84

Sequence	protein stability index (treatment: DMSO)	protein stability index (treatment: MLN4924 1 uM, 8 h)
MTAPAGPRGSETERLLTPNPGYGT [MCOLN1]	4.23 ± 0.22	4.2 ± 0.42
LVDKETDKRHVEQKIQFKRETASL [PDZK1]	4.72 ± 0.63	4.52 ± 0.92
MAMPNGFHEDGPQGPGGDEDDDEE [PSD2]	5.41 ± 0.3	5.47 ± 0.18
LDFSKKILHTAWHPSENIIAVAAT [PPP2R2B]	2.05 ± 0.2	2.3 ± 0.039
NAIRVHHALATRASDYSKKSNVLK [PSD2]	3.46 ± 0.31	3.5 ± 0.12
SKFKKLMKQGGAALEGSALANGRA [DLX1]	3.78 ± 0.34	4 ± 0.26
LPLETARESPSFKLEPMETERSPG [ZNF263]	5.24 ± 0.13	5.36 ± 0.13
NHVAVAARYAQQKHRIRRVLIVDW [HDAC6]	2.34 ± 0.72	2.09 ± 0.27
DKQKLKRTEIISRSWFPSAPGSAS [YJU2B]	3.56 ± 0.21	3.71 ± 0.12
SLNPDGYEKAYEGGSELGGWSLGR [CPXM2]		4.29 ± 0.39
RSKSGSEEVLCDSCIGNKQKAVKS [TRIM29]	4.96 ± 0.31	5.19 ± 0.11
ANAQIQILTRSWEEVSTLNAQIPE [CD207]	3.52 ± 0.18	3.53 ± 0.2
SAHPVEVFSFDLHEPLSKERVEAF [TMEM175]	3.82 ± 0.19	3.82 ± 0.3
SSKEEQKLIATSNKPAVKLLYNRS [KCTD10]	3.9 ± 0.27	4.08 ± 0.48
LYFHHYFPAMLFSSMLTGILWDTL [POMT2]	2.84 ± 0.34	3.21 ± 0.23
QEQVAGGEAQPGLPQEDPSTSQGC [FEM1A]	5.34 ± 0.12	5.42 ± 0.43
ESVEGVVRILLEHYYKENDPSVRL [INTS4]	2.22 ± 0.46	2.46 ± 0.16
LLTLPRPPLSGALASITETIQVHR [HDAC6]	3.12 ± 0.13	3.22 ± 0.28
SKLVESGIQFMDEPEMAVFLQNAK [TRIM55]	3.71 ± 0.34	4.01 ± 0.21
CCSSADICPKCWTLMTMAIRIIDR [PRIM1]	2.25 ± 0.18	2.44 ± 0.55
PSASLGKASSRKPFGILSPNVLCS [FBXO34]	2.71 ± 0.23	2.8 ± 0.11
